Data reported in the supplement of paper PMC5998384.

Tests used:
HeLa Kyoto [1] = test: solubility in G1/S (NP-40 vs SDS abundance) (log2 ratio); higher = more soluble; details: cell cycle stage: G1/S
HeLa Kyoto [2] = test: melting temperature (median over replicates), in situ; higher = more thermally stable
HeLa Kyoto [3] = test: solubility change mitosis vs G1/S (difference of NP-40 vs SDS log2 ratios) (log2 ratio difference); higher = more soluble in mitosis
HeLa Kyoto [4] = test: thermal stability score vs G1/S (z-score of summed log2 fold changes over temperatures); higher = more thermally stable than in G1/S
[5] = cell cycle stage: early G1 (4.5 h after nocodazole release)
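Throughout, for melting temperature (median over replicates), in situ: HeLa Kyoto cells synchronized by double thymidine or nocodazole block, proteins quantified by TMT10plex mass spectrometry, three independent biological replicates.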
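Throughout, for solubility change mitosis vs G1/S (difference of NP-40 vs SDS log2 ratios): synchronized HeLa Kyoto cells (double thymidine block for G1/S, nocodazole release for mitosis), protein amounts in NP-40 versus SDS lysates quantified by mass spectrometry, three biological replicates.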
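Throughout, for solubility in G1/S (NP-40 vs SDS abundance): HeLa Kyoto cells arrested at G1/S by double thymidine block, proteins quantified by TMT10plex mass spectrometry in mild NP-40 versus SDS extracts, three biological replicates.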
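Throughout, for thermal stability score vs G1/S (z-score of summed log2 fold changes over temperatures): synchronized HeLa Kyoto cells, proteins quantified by TMT10plex mass spectrometry, three biological replicates, mitosis taken 0.5 h after nocodazole release, G1/S directly after double thymidine block.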

With “MELEDGVVYQEEPGGSGAVMSERVSGLAGSIYREFERLIGRYDEEVVKELMPLVVAVLENLDSVFAQDQEHQVELELLRDDNEQLITQYEREKALRKHAEEKFIEFEDSQEQEKKDLQTRVESLESQTRQLELKAKNYADQISRLEEREAELKKEYNALHQRHTEMIHNYMEHLERTKLHQLSGSDQLESTAHSRIRKERPISLGIFPLPAGDGLLTPDAQKGGETPGSEQWKFQELSQPRSHTSLKVSNSPEPQKAVEQEDELSDVSQGGSKATTPASTANSDVATIPTDTPLKEENEGFVKVTDAPNKSEISKHIEVQVAQETRNVSTGSAENEEKSEVQAIIESTPELDMDKDLSGYKGSSTPTKGIENKAFDRNTESLFEELSSAGSGLIGDVDEGADLLGMGREVENLILENTQLLETKNALNIVKNDLIAKVDELTCEKDVLQGELEAVKQAKLKLEEKNRELEEELRKARAEAEDARQKAKDDDDSDIPTAQRKRFTRVEMARVLMERNQYKERLMELQEAVRWTEMIRASRENPAMQEKKRSSIWQFFSRLFSSSSNTTKKPEPPVNLKYNAPTSHVTPSVKKRSSTLSQLPGDKSKAFDFLSEETEASLASRREQKREQYRQVKAHVQKEDGRVQAFGWSLPQKYKQVTNGQGENKMKNLPVPVYLRPLDEKDTSMKLWCAVGVNLSGGKTRDGGSVVGASVFYKDVAGLDTEGSKQRSASQSSLDKLDQELKEQQKELKNQEELSSLVWICTSTHSATKVLIIDAVQPGNILDSFTVCNSHVLCIASVPGARETDYPAGEDLSESGQVDKASLCGSMTSNSSAETDSLLGGITVVGCSAEGVTGAATSPSTNGASPVMDKPPEMEAENSEVDENVPTAEEATEATEGNAGSAEDTVDISQTGVYTEHVFTDPLGVQIPEDLSPVYQSSNDSDAYKDQISVLPNEQDLVREEAQKMSSLLPTMWLGAQNGCLYVHSSVAQWRKCLHSIKLKDSILSIVHVKGIVLVALADGTLAIFHRGVDGQWDLSNYHLLDLGRPHHSIRCMTVVHDKVWCGYRNKIYVVQPKAMKIEKSFDAHPRKESQVRQLAWVGDGVWVSIRLDSTLRLYHAHTYQHLQDVDIEPYVSKMLGTGKLGFSFVRITALMVSCNRLWVGTGNGVIISIPLTETNKTSGVPGNRPGSVIRVYGDENSDKVTPGTFIPYCSMAHAQLCFHGHRDAVKFFVAVPGQVISPQSSSSGTDLTGDKAGPSAQEPGSQTPLKSMLVISGGEGYIDFRMGDEGGESELLGEDLPLEPSVTKAERSHLIVWQVMYGNE [SPAG9]” as the sequence, how does the “solubility in G1/S (log2)” value (HeLa Kyoto [1]) read?
Its value is 0.00549.

And the melting temperature (HeLa Kyoto [2]; cell cycle stage: G1/S)?
The melting temperature was 51.3 °C.

And the melting temperature (HeLa Kyoto [2]; cell cycle stage: mitosis)?
Its melting temperature is 50.6 °C.

And the “solubility change mitosis (log2)” value (HeLa Kyoto [3])?
The value was -0.168.

And the thermal stability score (HeLa Kyoto [4]; [5])?
Its thermal stability score is 0.672.

And the thermal stability score (HeLa Kyoto [4]; cell cycle stage: mitosis)?
Its thermal stability score is 0.413.

What does the source list for “MAENGDNEKMAALEAKICHQIEYYFGDFNLPRDKFLKEQIKLDEGWVPLEIMIKFNRLNRLTTDFNVIVEALSKSKAELMEISEDKTKIRRSPSKPLPEVTDEYKNDVKNRSVYIKGFPTDATLDDIKEWLEDKGQVLNIQMRRTLHKAFKGSIFVVFDSIESAKKFVETPGQKYKETDLLILFKDDYFAKKNEERKQNKVEAKLRAKQEQEAKQKLEEDAEMKSLEEKIGCLLKFSGDLDDQTCREDLHILFSNHGEIKWIDFVRGAKEGIILFKEKAKEALGKAKDANNGNLQLRNKEVTWEVLEGEVEKEALKKIIEDQQESLNKWKSKGRRFKGKGKGNKAAQPGSGKGKVQFQGKKTKFASDDEHDEHDENGATGPVKRAREETDKEEPASKQQKTENGAGDQ [SSB]”?
solubility in G1/S (log2) (HeLa Kyoto [1]): 0.66; melting temperature (HeLa Kyoto [2]; cell cycle stage: G1/S): 49.3 °C; melting temperature (HeLa Kyoto [2]; cell cycle stage: mitosis): 50.3 °C; solubility change mitosis (log2) (HeLa Kyoto [3]): -0.0733; thermal stability score (HeLa Kyoto [4]; [5]): 2.85; thermal stability score (HeLa Kyoto [4]; cell cycle stage: mitosis): 0.442

“MSVTLHTDVGDIKIEVFCERTPKTCENFLALCASNYYNGCIFHRNIKGFMVQTGDPTGTGRGGNSIWGKKFEDEYSEYLKHNVRGVVSMANNGPNTNGSQFFITYGKQPHLDMKYTVFGKVIDGLETLDELEKLPVNEKTYRPLNDVHIKDITIHANPFAQ [PPIL3]” was tested. Which “solubility in G1/S (log2)” value (HeLa Kyoto [1]) did it give?
Its value is 0.455.

What about the melting temperature (HeLa Kyoto [2]; cell cycle stage: G1/S) of the same sequence?
Its melting temperature is 48.9 °C.

What about the melting temperature (HeLa Kyoto [2]; cell cycle stage: mitosis) of the same sequence?
The melting temperature was 50 °C.

What about the “solubility change mitosis (log2)” value (HeLa Kyoto [3]) of the same sequence?
Its value is -0.00294.

What about the thermal stability score (HeLa Kyoto [4]; [5]) of the same sequence?
The thermal stability score was 1.02.

What about the thermal stability score (HeLa Kyoto [4]; cell cycle stage: mitosis) of the same sequence?
The thermal stability score was 1.31.

Which “solubility in G1/S (log2)” value (HeLa Kyoto [1]) does the source give for “MATAEVLNIGKKLYEGKTKEVYELLDSPGKVLLQSKDQITAGNAARKNHLEGKAAISNKITSCIFQLLQEAGIKTAFTRKCGETAFIAPQCEMIPIEWVCRRIATGSFLKRNPGVKEGYKFYPPKVELFFKDDANNDPQWSEEQLIAAKFCFAGLLIGQTEVDIMSHATQAIFEILEKSWLPQNCTLVDMKIEFGVDVTTKEIVLADVIDNDSWRLWPSGDRSQQKDKQSYRDLKEVTPEGLQMVKKNFEWVAERVELLLKSESQCRVVVLMGSTSDLGHCEKIKKACGNFGIPCELRVTSAHKGPDETLRIKAEYEGDGIPTVFVAVAGRSNGLGPVMSGNTAYPVISCPPLTPDWGVQDVWSSLRLPSGLGCSTVLSPEGSAQFAAQIFGLSNHLVWSKLRASILNTWISLKQADKKIRECNL [PAICS]” here?
The value was 0.271.

And the melting temperature (HeLa Kyoto [2]; cell cycle stage: G1/S)?
Its melting temperature is 63.2 °C.

What about the melting temperature (HeLa Kyoto [2]; cell cycle stage: mitosis) of the same sequence?
The melting temperature was 66.2 °C.

What about the “solubility change mitosis (log2)” value (HeLa Kyoto [3]) of the same sequence?
The value was -0.0303.

What about the thermal stability score (HeLa Kyoto [4]; [5]) of the same sequence?
Its thermal stability score is -0.183.

And the thermal stability score (HeLa Kyoto [4]; cell cycle stage: mitosis)?
The thermal stability score was -0.625.

For “MALRVVRSVRALLCTLRAVPSPAAPCPPRPWQLGVGAVRTLRTGPALLSVRKFTEKHEWVTTENGIGTVGISNFAQEALGDVVYCSLPEVGTKLNKQDEFGALESVKAASELYSPLSGEVTEINEALAENPGLVNKSCYEDGWLIKMTLSNPSELDELMSEEAYEKYIKSIEE [GCSH]”, which “solubility in G1/S (log2)” value (HeLa Kyoto [1]) is on record?
Its value is 0.297.

And the melting temperature (HeLa Kyoto [2]; cell cycle stage: G1/S)?
Its melting temperature is 60 °C.

What about the melting temperature (HeLa Kyoto [2]; cell cycle stage: mitosis) of the same sequence?
The melting temperature was 56.8 °C.

What about the “solubility change mitosis (log2)” value (HeLa Kyoto [3]) of the same sequence?
The value was -0.0756.

And the thermal stability score (HeLa Kyoto [4]; [5])?
Its thermal stability score is -1.2.

And the thermal stability score (HeLa Kyoto [4]; cell cycle stage: mitosis)?
Its thermal stability score is -1.7.

Which “solubility in G1/S (log2)” value (HeLa Kyoto [1]) does the source give for “MLPSLQESMDGDEKELESSEEGGSAEERRLEPPSSSHYCLYSYRGSRLAQQRGDSEDGSPSGTNAETPSGDDFSLSLADTNLPSEVEPELRSFIAKRLSRGAVFEGLGNVASVELKIPGYRVGCYYCLFQNEKLLPETVTIDSERNPSEYVVCFLGGSEKGLELFRLELDKYIQGLKNNMNCEARGLESHIKSYLSSWFEDVVCPIQRVVLLFQEKLTFLLHAALSYTPVEVKESDEKTKRDINRFLSVASLQGLIHEGTMTSLCMAMTEEQHKSVVIDCSSSQPQFCNAGSNRFCEDWMQAFLNGAKGGNPFLFRQVLENFKLKAIQDTNNLKRFIRQAEMNHYALFKCYMFLKNCGSGDILLKIVKVEHEEMPEAKNVIAVLEEFMKEALDQSF [C17ORF75]” here?
The value was 0.283.

And the melting temperature (HeLa Kyoto [2]; cell cycle stage: G1/S)?
Its melting temperature is 51.5 °C.

What about the melting temperature (HeLa Kyoto [2]; cell cycle stage: mitosis) of the same sequence?
The melting temperature was 51.7 °C.

What about the “solubility change mitosis (log2)” value (HeLa Kyoto [3]) of the same sequence?
Its value is -0.159.

What about the thermal stability score (HeLa Kyoto [4]; [5]) of the same sequence?
Its thermal stability score is -0.255.

What about the thermal stability score (HeLa Kyoto [4]; cell cycle stage: mitosis) of the same sequence?
The thermal stability score was -0.352.
